Measured values as given in US12661385B2, “Modulation of mTORCI activity and autophagy via CIB2-RHEB interaction” (University of Maryland, Baltimore, priority 2018, dated 2026).

How the values were obtained:
Format in all cases: cell-based, rat
RPE-J cells [1] = assay: LC3-II induction / LC3 flux immunoblots in transfected RPE-J cells; conditions: RPE-J cells overexpressing CIB2 vs GFP, in the presence of bafilomycin A1, 24 hrs
Procedure: FIG. 13. Loss of CIB2, specifically in the RPE, leads to LC3 flux deficits, while CIB2 overexpression, in vitro, restores LC3 flux._a-d, RPE whole mounts treated with DMSO or 50 μM bafilomycin A1 (Baf-A1) overnight show reduced levels of LC3-II, quantified in panels b and d, in Cib2 deficient mice as compared to WT controls, indicating autophagy deficits. Ratio for WT or RPE-Cre+; Cib2^+/+ was set to 1. e. Representative immunoblots for LC3-II induction in transiently transfected (GFP or CIB2-IRES-GFP) RPE-J cells treated with DMSO, 50 μM bafilomycin-A1 (Baf-A1), or 100 nM rapamycin (Rapa) for 24 hrs. f. Quantification of LC3 flux (ratio of LC3-II/actin in Baf-A1 to DMSO treated samples) or LC3B-II/actin ratio up on rapamycin treatment for immunoblots shown in (e). […]
(§1) Complementary to the findings of Cib2 mutant mice, over-expressing CIB2 in RPE-J cells increased LAMP-1 and ATG5-ATG12 complex proteins levels (FIG. 12c-d). […] To test this idea, we assessed LC3-II flux. LC3-I is a cytosolic protein which when lipidated with a phosphatidylethanolamine adduct (LC3-II form) localizes to the growing auto/phagosome membrane, and thus can be used as a reliable readout for the dynamic autophagic process (Valapala et al., Autophagy 10, 480-496 (2014); Kim et al., Noncanonical Autophagy Promotes the Visual Cycle. Cell 154, 365-376 (2013); Klionsky et al., Autophagy 12, 1-222 (2016)). […]

RPE-J cells [2] = assay: In vitro pulse-chase phagocytosis assay with opsin immunoblotting; conditions: CIB2 overexpression vs control, chase 6 h
Text: (§2) FIG. 12. CIB2 mutant mice have less autophagy/lysosomal proteins, and overexpression of CIB2. in vitro, is sufficient to boost levels of autophagy/lysosomal proteins and clearance of opsin. a. […] Pro-cathepsin D levels were quantified from non-saturated exposures. c. Representative immunoblots for indicated autophagy/lysosomal proteins from RPE-J cells transiently transfected with GFP or CIB2-IRES-GFP. Endogenous CIB2 is observable in long exposure immunoblot, while transiently overexpressed CIB2 is readily observable in short exposure immunoblot. d. Quantification for immunoblots shown in (c). n=5 (LAMP-1) or 4 (ATG5-ATG12) independent transfection experiments. e, Schematic of the pulse-chase phagocytosis assay (left panel)—also see Examples below. […]
as §1

RPE-J cells [3] = assay: Immunoblots for autophagy/lysosomal proteins in transfected RPE-J cells; conditions: RPE-J cells over-expressing CIB2 vs GFP
Text: as §2, §1

B1: CIB2: calcium and integrin binding protein 2, over-expressed in cells from plasmid constructs; SEQ ID NO:1 (human), SEQ ID NO:2 (mouse) (protein)
chain: MGNKQTIFTEEQLDNYQDCTFFNKKDILKLHARFYELAPNLVPMDYRKSPIVHVPMSLIIQMPELRENPFKERIVEAFSEDGEGNLTFNDFVDMFSVLCESAPRELKANYAFKIYDFNTDNFICKEDLEMTLARLTKSELEEDEVVLVCDKVIEEADLDGDGKLGFADFEDMIAKAPDFLSTFHIRI
modifications: left off: large carriers
RPE-J cells [1]
  Relative LC3 flux (ratio of LC3-II/actin in Baf-A1 to DMSO treated samples): markedly increased
RPE-J cells [2]
  Opsin 6 hr later (digestion phase): less opsin
RPE-J cells [3]
  ATG5-ATG12 complex protein levels: increased
  LAMP-1 protein levels: increased
